Data from US20260265334A1, “STAPLED PEPTIDES” (THE FLOREY INSTITUTE OF NEUROSCIENCE AND MENTAL HEALTH, priority 2023, published 2026).
Bridge positions count the residues as written; N and C are the ends. Square brackets hold non-standard residues; d marks the D form. Ends that are not written are not given here. I, II: the chains in the order shown. αMeF = C[C@](N)(Cc1ccccc1)C(=O)O

T1: RXFP3 (relaxin family peptide receptor 3) on CHO-K1-RXFP3 cells (UniProt Q9NSD7 1-469, limits assumed)
T1 sequence (looked up): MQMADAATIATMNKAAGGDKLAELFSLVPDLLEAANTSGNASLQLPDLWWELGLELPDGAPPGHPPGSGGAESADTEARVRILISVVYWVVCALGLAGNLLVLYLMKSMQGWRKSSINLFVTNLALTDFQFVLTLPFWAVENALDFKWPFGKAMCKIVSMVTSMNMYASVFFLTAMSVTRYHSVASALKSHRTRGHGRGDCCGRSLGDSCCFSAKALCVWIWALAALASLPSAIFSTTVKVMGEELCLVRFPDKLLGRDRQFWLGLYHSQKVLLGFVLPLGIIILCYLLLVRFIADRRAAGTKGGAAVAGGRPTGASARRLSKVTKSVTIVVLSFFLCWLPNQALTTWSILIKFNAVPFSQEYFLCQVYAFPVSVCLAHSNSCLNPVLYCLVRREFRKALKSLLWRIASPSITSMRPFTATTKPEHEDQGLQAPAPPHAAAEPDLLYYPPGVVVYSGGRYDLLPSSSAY

T2: RXFP3-NLuc (human RXFP3 with Nanoluciferase on the C-terminus) (human, UniProt Q9NSD7 1-469)
T2 sequence (looked up): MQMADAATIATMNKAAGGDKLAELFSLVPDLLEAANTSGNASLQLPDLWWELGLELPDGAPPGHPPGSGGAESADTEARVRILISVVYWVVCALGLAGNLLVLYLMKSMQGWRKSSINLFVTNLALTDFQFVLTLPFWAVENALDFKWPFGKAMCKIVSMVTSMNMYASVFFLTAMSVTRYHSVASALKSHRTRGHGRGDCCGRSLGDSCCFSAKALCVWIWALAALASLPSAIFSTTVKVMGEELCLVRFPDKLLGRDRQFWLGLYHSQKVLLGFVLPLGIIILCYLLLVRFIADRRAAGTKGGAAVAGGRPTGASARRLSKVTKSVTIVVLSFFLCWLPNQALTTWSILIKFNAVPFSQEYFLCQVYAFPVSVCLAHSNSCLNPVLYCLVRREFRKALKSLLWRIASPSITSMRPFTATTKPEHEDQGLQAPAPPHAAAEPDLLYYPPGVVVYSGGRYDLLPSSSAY

T3: RXFP3 (relaxin family peptide receptor 3) on CHO-K1-RXFP3 cells, Q9NSD7
T3 chain: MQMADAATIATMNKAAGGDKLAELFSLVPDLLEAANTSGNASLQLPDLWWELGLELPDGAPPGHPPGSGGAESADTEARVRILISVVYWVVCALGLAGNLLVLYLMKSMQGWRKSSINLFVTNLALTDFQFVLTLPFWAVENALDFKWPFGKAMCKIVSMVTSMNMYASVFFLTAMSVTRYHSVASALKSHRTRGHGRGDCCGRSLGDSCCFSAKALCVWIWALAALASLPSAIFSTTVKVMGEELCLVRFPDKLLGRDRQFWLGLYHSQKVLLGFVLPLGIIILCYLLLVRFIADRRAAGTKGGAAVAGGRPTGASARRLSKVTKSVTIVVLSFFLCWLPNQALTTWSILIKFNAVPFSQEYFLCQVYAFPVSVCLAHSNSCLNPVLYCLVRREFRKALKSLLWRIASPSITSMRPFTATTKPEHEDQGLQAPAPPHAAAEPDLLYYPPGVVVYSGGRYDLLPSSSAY


What was measured:
[1] = target: T4, RXFP4 (relaxin family peptide receptor 4) on CHO-K1-RXFP4 cells (UniProt Q8TDU9 1-374, limits assumed); assay: cell-based or functional assay
[2] = target: T1, RXFP3 (relaxin family peptide receptor …); assay: cell-based or functional assay
[3] = target: T4, RXFP4 (relaxin family peptide receptor …); assay: competition with Eu-R3/I5 on CHO-K1-RXFP4 cells
[4] = target: T1, RXFP3 (relaxin family peptide receptor …); assay: competition with Eu-H3B1-22R on CHO-K1-RXFP3 cells
[5] = target: T1, RXFP3 (relaxin family peptide receptor …); assay: cell-based or functional assay; remark: listed apart in the source
[6] = target: T4, RXFP4 (relaxin family peptide receptor …); assay: cell-based or functional assay; remark: listed apart in the source
[7] = target: T2, RXFP3-NLuc (human RXFP3 with …); assay: cell-based or functional assay
[8] = target: RXFP4-NLuc (nanoluciferase-tagged RXFP4) (UniProt Q8TDU9 1-374); assay: cell-based or functional assay
[9] = target: T1, RXFP3 (relaxin family peptide receptor …); assay: competition with 5 nM Eu-H3B1-22R on CHO-K1-RXFP3 cells
[10] = target: T4, RXFP4 (relaxin family peptide receptor …); assay: competition with 5 nM Eu-DTPA-R3/I5 on CHO-K1-RXFP4 cells
[11] = target: T3, RXFP3 (relaxin family peptide receptor …); assay: cell-based or functional assay

T4 sequence (Q8TDU9 whole entry): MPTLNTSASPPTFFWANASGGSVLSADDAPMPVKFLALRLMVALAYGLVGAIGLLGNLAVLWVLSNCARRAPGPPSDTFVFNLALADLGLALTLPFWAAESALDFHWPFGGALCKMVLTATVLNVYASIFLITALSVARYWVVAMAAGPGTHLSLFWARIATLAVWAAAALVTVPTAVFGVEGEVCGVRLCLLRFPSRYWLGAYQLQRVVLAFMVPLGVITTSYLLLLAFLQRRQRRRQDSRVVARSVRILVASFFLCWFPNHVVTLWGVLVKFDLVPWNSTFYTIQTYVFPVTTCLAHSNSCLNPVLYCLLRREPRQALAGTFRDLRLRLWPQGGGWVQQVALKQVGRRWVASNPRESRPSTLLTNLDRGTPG
Chain of RXFP4-NLuc (nanoluciferase-tagged RXFP4) (Q8TDU9 whole entry): as above

| Binder | RXFP3 Antagonist potency pIC50 [2] | binding result [3] | pKi [4] | cAMP pEC50 [6] | pKi [10] | further results |
| --- | --- | --- | --- | --- | --- | --- |
| SGR[αMeF]FIR[αMeF]VIFTSR (14 residues) [H3B10-22R13/17αF (Formula X, RXFP3 antagonist)] | 6.98 | no binding | 7.6 | – | – | RXFP4 cAMP pEC50 [1]: < 5 |
| SGR[αMeF]FIR[αMeF]VIFTSGGSRW (18-residue single-chain RXFP3 agonist, non-covalently stapled; also called πH3B; target peptide) [H3B10-27(13/17αF)] | – | – | – | 7.26 | 6.81 | cAMP pEC50 [5]: 8.16; RXFP3 pEC50 (β-arrestin2 recruitment, NanoBRET AUC) [7]: 7.19; RXFP4 pEC50 (β-arrestin2 recruitment, NanoBRET AUC) [8]: 5.57; pKi [9]: 6.83 |
| RAAPYGVRLSGREFIRAVIFTSR (23 residues) [H3B1-22R (Formula XI, known single chain antagonist of RXFP3)] | 6.25 | no binding | 7.64 | – | – | – |
| Human insulin-like peptide 7 (INSL7), also known as human relaxin-3 (H3 relaxin) (ligand, disulfide I:10-I:15; not fully specified; cysteine pairing not given here) chain 1: DVLAGLSSSCCKWGCSKSEISSLC chain 2: RAAPYGVRLCGREFIRAVIFTCGGSRW | – | – | – | 8.94 | 8.42 | – |
| SGRFFIRFVIFTSGGSRW (modifications not checked) [H3B10-27(13/17F)] | – | – | – | – | – | cAMP pEC50 [11]: < 5 |
